Measured values: paper PMC3948214 (Biochemistry, 2013)

Assays:
[1] = molecular target: HpFabZ (Helicobacter pylori) (UniProt B5Z920); experiment: SPR; conditions: cited from earlier work
crystal structure = molecular target: the molecule itself; experiment: crystal structure

Chain of HpFabZ (Helicobacter pylori) (B5Z920 whole entry): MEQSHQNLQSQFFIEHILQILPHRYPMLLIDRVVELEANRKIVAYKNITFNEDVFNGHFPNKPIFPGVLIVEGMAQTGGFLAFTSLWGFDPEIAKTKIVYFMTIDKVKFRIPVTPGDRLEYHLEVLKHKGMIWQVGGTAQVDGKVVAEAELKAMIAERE
Chain of HpACP (B5Z6T1 whole entry): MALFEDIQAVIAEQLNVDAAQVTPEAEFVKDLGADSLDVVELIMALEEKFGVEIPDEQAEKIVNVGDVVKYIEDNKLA

Row | Molecule | Kd [1] | binding result (crystal structure)
1 | HpACP (from UniProt B5Z6T1) | 10 nM | –
2 | RifDH10, the dehydratase domain from the terminal module (module 10) of the rifamycin polyketide synthase (domain or fragment, Amycolatopsis mediterranei, UniProt O54593 2569-2872, looked up) ADTASDAVSLGLAGADHPLLGAVVQLPQSDGLVFTSRLSLRSHPWLADHAVRDVVIVPGTGLVELAVRAGDEAGCPVLDELVIEAPLVVPRRGGVRVQVALGGPADDGSRTVDVFSLREDADSWLRHATGVLVPENRPRGTAAFDFAAWPPPEAKPVDLTGAYDVLADVGYGYGPTFRAVRAVWRRGSGNTTETFAEIALPEDARAEAGRFGIHPALLDAALHSTMVSAAADTESYGDEVRLPFAWNGLRLHAAGASVLRVRVAKPERDSLSLEAVDESGGLVVTLDSLVGRPVSNDQLTTAAG | – | binds
